In assay [1] the target is T1, Fc-fusion protein of human carbonic anhydrase IX (human, UniProt Q16790 38-414). The assay can be described thus: SPR, captured hCAIX-Fc; pKD category A: >8.0. (Surface plasmon resonance follows binding to a sensor surface in real time, without labels.)
Assay [2] deals with T1, Fc-fusion protein of human carbonic …. The assay can be described thus: SPR, captured hCAIX-Fc; t1/2 category C: 2.1-5.0 min. The protocol:
Stock solutions of test compounds were prepared by dissolving each compound in DMSO. DMSO stock solution were diluted 1:1000 in Running Buffer without DMSO. […] SPR binding analyses were performed in Single Cycle Kinetic (SCK) mode at 25° C.
For each test compound, SPR raw data in the form of resonance units (RU) were plotted as sensorgrams using the Biacore™ T200 control software. The signal from the blank sensorgram was subtracted from that of the test compound sensorgram (blank corrected). The blank corrected sensorgram was corrected for baseline drift by subtracting the sensorgram of a SCK run without the test compound (running buffer only). […] Raw data and fit results were imported as text files in IDBS. The pKD value (negative decadic logarithm of dissociation constant) was calculated in the IDBS excel template.

Starred links: 1 amine or outer side, 2 acyl side, 3 side chain; linkers in the order of their positions; H or OH if unused. Positions of bridges follow the written chain, without caps; N, C: chain ends. Non-standard residues stand in square brackets, D forms with d. Groups on a side chain read outwards from the residue. Primed or numbered codes have the meaning given here. *: point of attachment. Af3(DImAc) = 3-aminophenylalanine acylated on the ring amine with 2-{2,5-dioxo-octahydroimidazo[4,5-d]imidazolidin-1-yl}acetic acid, O=C(CN1C(=O)NC2NC(=O)NC21)Nc1cccc(C[C@H](N[*:1])C(=O)[*:2])c1; APAc″ = 2-(4-(amino)piperidin-1-yl)acetic acid, NC1CCN(CC(=O)*)CC1; DOTA = O=C(O)CN1CCN(CC(=O)O)CCN(CC(=O)*)CCN(CC(=O)O)CC1; Phe(4-CF3) = N[C@@H](Cc1ccc(C(F)(F)F)cc1)C(=O)O; Phe(4-I) = N[C@@H](Cc1ccc(I)cc1)C(=O)O; mXylylene = c1cc(C[*:1])cc(C[*:2])c1; Bta = N[C@@H](Cc1csc2ccccc12)C(=O)O; Cha = N[C@@H](CC1CCCCC1)C(=O)O; Propanoyl(3-OH) = O=C(CCO)*; 4Amb = NCc1ccc(C(=O)O)cc1; 4Amc = not defined here; APAc = not defined here; Ac5c = NC1(C(=O)O)CCCC1; Inp′ = not defined here; Apr = not defined here; Dap = NC[C@H](N)C(=O)O; Ttds″ = Ttds spacer; Sar = CNCC(=O)O

The source of these data is US20250339569A1 (3B PHARMACEUTICALS, published 2025).

In turn, {DOTA-APAc″}-VYCE[dP]DW[Cha]TWSC-NH2 (linker 3-12 via mXylylene) [3BP-4143] came in with a pKD in assay [1] greater than 8 pkd. In addition, the “t1/2 (half-life of the complex, SPR)” value in assay [2] was in the range of 2.1 to 5 min.

{DOTA-APAc″}-VYCE[dP]D[Phe(4-CF3)]LTWSC-NH2 (linker 3-12 via mXylylene; not fully specified) [3BP-4139] showed a pKD in assay [1] greater than 8 pkd. Moreover, in assay [2], the “t1/2 (half-life of the complex, SPR)” value is 2.1 to 5 min.

B1: 3BP-3058 (peptide)
peptide: Ac-VYCEGDWLTWAC-NH2
modifications: linker 3-12 via mXylylene
SMILES: CC(=O)N[C@H](C(=O)N[C@@H](Cc1ccc(O)cc1)C(=O)N[C@H]1CSCc2cccc(c2)CSC[C@@H](C(N)=O)NC(=O)[C@H](C)NC(=O)[C@H](Cc2c[nH]c3ccccc23)NC(=O)[C@H]([C@@H](C)O)NC(=O)[C@H](CC(C)C)NC(=O)[C@H](Cc2c[nH]c3ccccc23)NC(=O)[C@H](CC(=O)O)NC(=O)CNC(=O)[C@H](CCC(=O)O)NC1=O)C(C)C
For the molecule B1, the pKD in assay [1] was greater than 8 pkd. The “t1/2 (half-life of the complex, SPR)” value in assay [2] was in the range of 2.1 to 5 min.

In assay [1], {DOTA-Ttds″}-VYCEGDWLTWAC-NH2 (linker 3-12 via mXylylene; not fully specified) [3BP-3272] yielded a pKD greater than 8 pkd. The “t1/2 (half-life of the complex, SPR)” value in assay [2] lay in the range of 2.1 to 5 min.

B2: 3BP-3313 (peptide)
peptide: Ac-VYCE[Sar]DWLTWAC-NH2
modifications: linker 3-12 via mXylylene
SMILES: CC(=O)N[C@H](C(=O)N[C@@H](Cc1ccc(O)cc1)C(=O)N[C@H]1CSCc2cccc(c2)CSC[C@@H](C(N)=O)NC(=O)[C@H](C)NC(=O)[C@H](Cc2c[nH]c3ccccc23)NC(=O)[C@H]([C@@H](C)O)NC(=O)[C@H](CC(C)C)NC(=O)[C@H](Cc2c[nH]c3ccccc23)NC(=O)[C@H](CC(=O)O)NC(=O)CN(C)C(=O)[C@H](CCC(=O)O)NC1=O)C(C)C
In assay [1], B2 came in with a pKD greater than 8 pkd. The “t1/2 (half-life of the complex, SPR)” value in assay [2] is 2.1 to 5 min.

{Propanoyl(3-OH)}-YCE[dP]DWLTWE([Apr-DOTA])C-NH2 (linker 2-11 via mXylylene; reading uncertain) [3BP-3842]: the pKD in assay [1] is greater than 8 pkd. In addition, the “t1/2 (half-life of the complex, SPR)” value in assay [2] lay in the range of 2.1 to 5 min.

Turning to {DOTA}-YCE[dP]DWLTWSC-NH2 (linker 2-11 via mXylylene; also: ['indium complexed by DOTA']) [3BP-3906], the pKD in assay [1] is greater than 8 pkd. Moreover, the “t1/2 (half-life of the complex, SPR)” value in assay [2] was in the range of 2.1 to 5 min.

Consider {DOTA-APAc″}-V[Dap]CE[dP]DWLTWDC-NH2 (lactam 2-11; linker 3-12 via mXylylene) [3BP-4176], for which, in assay [1], the pKD is greater than 8 pkd. Besides, the “t1/2 (half-life of the complex, SPR)” value in assay [2] was 2.1 to 5 min.

B3: 3BP-4257 (peptide)
peptide: {DOTA}-SDCE[dP]DWLTW[Dap]C-NH2
modifications: lactam 11-2; linker 3-12 via mXylylene
SMILES: CC(C)C[C@@H]1NC(=O)[C@H](Cc2c[nH]c3ccccc23)NC(=O)[C@H](CC(=O)O)NC(=O)[C@H]2CCCN2C(=O)[C@H](CCC(=O)O)NC(=O)[C@@H]2CSCc3cccc(c3)CSC[C@@H](C(N)=O)NC(=O)[C@H](CNC(=O)C[C@H](NC(=O)[C@H](CO)NC(=O)CN3CCN(CC(=O)O)CCN(CC(=O)O)CCN(CC(=O)O)CC3)C(=O)N2)NC(=O)[C@H](Cc2c[nH]c3ccccc23)NC(=O)[C@H]([C@@H](C)O)NC1=O
In turn, B3 returned a pKD in assay [1] greater than 8 pkd. Moreover, in assay [2], the “t1/2 (half-life of the complex, SPR)” value lay in the range of 2.1 to 5 min.

Regarding {DOTA-Gab}-DCE[dP]DWLTW[Dap]C-NH2 (lactam 1-10; linker 2-11 via mXylylene) [3BP-4263], in assay [1], the pKD is greater than 8 pkd. In assay [2], the “t1/2 (half-life of the complex, SPR)” value lay within 2.1 to 5 min.

In assay [1], {DOTA-APAc″}-VYCE[dP]D[Af3(DImAc)]LTWSC-NH2 (linker 3-12 via mXylylene) [3BP-4341] returned a pKD greater than 8 pkd. In addition, in assay [2], the “t1/2 (half-life of the complex, SPR)” value was 2.1 to 5 min.

Molecule {DOTA-APAc}-VYCE[dP]D[Phe(4-I)]LTWSC-NH2 (linker 3-12 via mXylylene; not fully specified; reading uncertain) [3BP-4134] returned a pKD in assay [1] greater than 8 pkd. The “t1/2 (half-life of the complex, SPR)” value in assay [2] is 2.1 to 5 min.

The molecule {DOTA-APAc″}-DCE[dP]DWLTW[Dap]C-NH2 (lactam 10-1; linker 2-11 via mXylylene) [3BP-4254] registered a pKD in assay [1] greater than 8 pkd. Moreover, the “t1/2 (half-life of the complex, SPR)” value in assay [2] was in the range of 2.1 to 5 min.

Regarding {DOTA-Ttds″}-VYCE[Sar]DWLTWQC-NH2 (linker 3-12 via mXylylene; not fully specified) [3BP-3271], the pKD in assay [1] is greater than 8 pkd. Moreover, in assay [2], the “t1/2 (half-life of the complex, SPR)” value was 2.1 to 5 min.

B4: 3BP-3311 (peptide)
peptide: Ac-VYCE[Sar]D[Bta]LTWQC-NH2
modifications: linker 3-12 via mXylylene
SMILES: CC(=O)N[C@H](C(=O)N[C@@H](Cc1ccc(O)cc1)C(=O)N[C@H]1CSCc2cccc(c2)CSC[C@@H](C(N)=O)NC(=O)[C@H](CCC(N)=O)NC(=O)[C@H](Cc2c[nH]c3ccccc23)NC(=O)[C@H]([C@@H](C)O)NC(=O)[C@H](CC(C)C)NC(=O)[C@H](Cc2csc3ccccc23)NC(=O)[C@H](CC(=O)O)NC(=O)CN(C)C(=O)[C@H](CCC(=O)O)NC1=O)C(C)C
Turning to B4, in assay [1], the pKD was greater than 8 pkd. In assay [2], the “t1/2 (half-life of the complex, SPR)” value lay in the range of 2.1 to 5 min.

B5: 3BP-4261 (peptide)
peptide: {DOTA-4Amb}-DCE[dP]DWLTW[Dap]C-NH2
modifications: lactam 10-1; linker 2-11 via mXylylene
SMILES: CC(C)C[C@@H]1NC(=O)[C@H](Cc2c[nH]c3ccccc23)NC(=O)[C@H](CC(=O)O)NC(=O)[C@H]2CCCN2C(=O)[C@H](CCC(=O)O)NC(=O)[C@@H]2CSCc3cccc(c3)CSC[C@@H](C(N)=O)NC(=O)[C@H](CNC(=O)C[C@H](NC(=O)c3ccc(CNC(=O)CN4CCN(CC(=O)O)CCN(CC(=O)O)CCN(CC(=O)O)CC4)cc3)C(=O)N2)NC(=O)[C@H](Cc2c[nH]c3ccccc23)NC(=O)[C@H]([C@@H](C)O)NC1=O
Take B5: in assay [1], the pKD is greater than 8 pkd. Also, the “t1/2 (half-life of the complex, SPR)” value in assay [2] lay in the range of 2.1 to 5 min.

{DOTA-Inp′}-DCE[dP]DWLTW[Dap]C-NH2 (lactam 10-1; linker 2-11 via mXylylene) [3BP-4256] yielded a pKD in assay [1] greater than 8 pkd. In assay [2], the “t1/2 (half-life of the complex, SPR)” value was in the range of 2.1 to 5 min.

As to {DOTA-APAc″}-YCE[dP]DWLTWSC-NH2 (linker 2-11 via mXylylene) [3BP-3867], the pKD in assay [1] was greater than 8 pkd. Moreover, the “t1/2 (half-life of the complex, SPR)” value in assay [2] fell in the range of 2.1 to 5 min.

In turn, {DOTA-4Amc}-DCE[dP]DWLTW[Dap]C-NH2 (lactam 10-1; linker 2-11 via mXylylene; reading uncertain) [3BP-4258] came in with a pKD in assay [1] greater than 8 pkd. For the same molecule, the “t1/2 (half-life of the complex, SPR)” value in assay [2] is 2.1 to 5 min.

{DOTA-APAc}-VYCE[dP]DW[Ac5c]TWSC-NH2 (linker 3-12 via mXylylene; reading uncertain) [3BP-3587] had a pKD in assay [1] greater than 8 pkd. Also, the “t1/2 (half-life of the complex, SPR)” value in assay [2] lay within 2.1 to 5 min.

B6: 3BP-3934 (peptide)
peptide: {DOTA}-YCE[dP]KWLEWSC-NH2
modifications: linker 2-11 via mXylylene; lactam 5-8
SMILES: CC(C)C[C@@H]1NC(=O)[C@H](Cc2c[nH]c3ccccc23)NC(=O)[C@@H]2CCCCNC(=O)CC[C@H](NC1=O)C(=O)N[C@@H](Cc1c[nH]c3ccccc13)C(=O)N[C@@H](CO)C(=O)N[C@H](C(N)=O)CSCc1cccc(c1)CSC[C@H](NC(=O)[C@H](Cc1ccc(O)cc1)NC(=O)CN1CCN(CC(=O)O)CCN(CC(=O)O)CCN(CC(=O)O)CC1)C(=O)N[C@@H](CCC(=O)O)C(=O)N1CCC[C@@H]1C(=O)N2
In turn, B6 had a pKD in assay [1] greater than 8 pkd. The “t1/2 (half-life of the complex, SPR)” value in assay [2] lay in the range of 2.1 to 5 min.
